Source: patent publication US20210214460A1 (AstraZeneca / MedImmune, published 2021)

Assays:
[1] = target: T1, monomeric human sBCMA (GenScript) (human, UniProt Q02223 1-54); test: SPR (ProteOn XPR36), antibody captured by anti-Fc, sBCMA 100-6.25 nM as analyte
T1 construct: extracellular domain; also called monomeric BCMA; monomeric (soluble) BCMA
T1 sequence (looked up): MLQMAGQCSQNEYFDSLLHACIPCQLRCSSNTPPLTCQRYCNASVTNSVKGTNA
Description: The binding of 15B2GL monoclonal antibody and optimized clones I09, L15, P10, N22, and M02 (described in Example 1) was assessed using monomeric human sBCMA (GenScript, Piscataway, N.J.) using a ProteOn™ XPR36 instrument (Bio-Rad, Hercules, Calif.). The binding of J6M0 also was assessed for comparison. Standard amine coupling was used to immobilize 25 μg/ml anti-Fc polyclonal antibody (Jackson ImmunoResearch, West Grove, Pa.) prepared in 10 mM sodium acetate buffer (pH 4.5) to the surface of a ProteOn™ GLC biosensor chip (Bio-Rad, Hercules, Calif.) pre-activated with 20 mM EDAC (1-ethyl-3-(3-dimethylaminopropyl)carbodiimide hydrochloride) and 5 mM Sulfo-NHS (N-hydroxysulfosuccinimide) at a density of ˜200-600 resonance units (RU). 15B2GL, I09, L15, P10, N22, M02, and J6M0 were subsequently injected at a concentration of 1 μg/ml for capture by the immobilized anti-Fc polyclonal antibody. The sensorgram was recorded by flowing two-fold serial dilutions of sBCMA prepared in PBS (pH 7.4) with 0.005% (v/v) Tween®-20, ranging from 100-6.25 nM, over the captured surface for 150 seconds at 75 μL/minute with dissociation time of 600 seconds. ProteOn™ data analysis software was used to analyze the data.

[2] = target: T2, membrane-bound human BCMA (human, UniProt Q02223 1-184); test: flow cytometry on MM.1S cells (endogenous BCMA), printed as apparent affinity
T2 construct: whole, on cells; also called huBCMA
T2 sequence (looked up): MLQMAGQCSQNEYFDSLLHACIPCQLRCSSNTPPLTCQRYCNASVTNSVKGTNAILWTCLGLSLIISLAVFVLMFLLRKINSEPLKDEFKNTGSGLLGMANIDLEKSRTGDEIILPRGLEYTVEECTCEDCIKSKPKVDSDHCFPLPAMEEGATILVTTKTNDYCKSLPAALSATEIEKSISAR
Description: (§1) Binding of 15B2GL, I09, L15, and J6M0 to membrane-bound human BCMA was evaluated using flow cytometry in multiple myeloma and plasma cell leukemia cell lines that endogenously express BCMA (NCI-H929 and MM.1S, respectively). Binding of 15B2GL, 109, L15 to membrane-bound human BCMA was also evaluated in Ad293 cells expressing human BCMA. Binding assays were performed by incubating the anti-BCMA antibodies with 200,000 cells for 30 minutes at 4° C. followed by two washes with PBS+2% FBS (FACS Buffer). A range of antibody concentrations were evaluated using a 12-point, 3-fold dilution series. Cells were then incubated with 5 ug/mL goat-anti human IgG-AF647 secondary antibodies (Thermo Fisher Scientific, Waltham, Mass.) at 4° C., followed by two washes in PBS+2% FBS. Cells were resuspended in 200 uL PBS+2% FBS+DAPI.
(§2) Fluorescence of live, single cells was measured using a BD Biosciences LSRII cytometer and BD FACSDiva™ software (BD Biosciences, San Jose, Calif.). Data were analyzed using FlowJo™ software (FlowJo, LLC, Ashland, Oreg.). Mean fluorescence intensity values were used to determine percentage bound and EC50 was determined using Prism™ software (GraphPad Software Inc, La Jolla, Calif.).

[3] = target: T2, membrane-bound human BCMA; test: flow cytometry on Ad293 cells expressing human BCMA, printed as apparent affinity
Description: as §1, §2

[4] = target: T2, membrane-bound human BCMA; test: flow cytometry on NCI-H929 cells (endogenous BCMA), printed as apparent affinity
Description: as §1, §2

B1: N22 (lead optimized clone of 15B2GL) (antibody, V domains shown)
VH: EVQLVESGGGLVKPGGSLRLSCAASGFTFSSYSMNWVRQAPGKGLEWVSSISGSSNYIYYADSVKGRFTISRDNAKNSLYLQMNSLRAEDTAVYYCARGGNYFVEYFQYWGQGTLVTVSS
VL: EIVLTQSPGTLSLSPGERATLSCRASQYISSNYLAWYQQKPGQAPRLLIYGASNRATGIPDRFSGSGSGTDFTLTISRLEPEDFAVYYCQQYSSSPITFGQGTKLEIK
notes: Cloned into an IgG mammalian expression vector ("Maia") designed for ADC conjugation
Kd [1]: 16 nM

B2: M02 (lead optimized clone of 15B2GL) (antibody, V domains shown)
VH: EVQLVESGGGLVKPGGSLRLSCAASGFTFSSYSMNWVRQAPGKGLEWVSSISGQSNYIYYADSVKGRFTISRDNAKNSLYLQMNSLRAEDTAVYYCARGGNYYVEYFQYWGQGTLVTVSS
VL: EIVLTQSPGTLSLSPGERATLSCRASQYISSNNLAWYQQKPGQAPRLLIYGASNRATGIPDRFSGSGSGTDFTLTISRLEPEDFAVYYCQQYSSDPITFGQGTKLEIK
notes: as for B1
Kd [1]: 9.9 nM

B3: I09 (lead optimized clone of 15B2GL) (antibody, V domains shown)
VH: EVQLVESGGGLVKPGGSLRLSCAASGFTFSSYSMNWVRQAPGKGLEWVSSISGSSNYIYYADSVKGRFTISRDNAKNSLYLQMNSLRAEDTAVYYCARGGNYFVEYFQQWGQGTLVTVSS
VL: EIVLTQSPGTLSLSPGERATLSCRASQYISSNYLAWYQQKPGQAPRLLIYGASNRATGIPDRFSGSGSGTDFTLTISRLEPEDFAVYYCQQYSSDPITFGQGTKLEIK
notes: Cloned into an IgG mammalian expression vector ("Maia") designed for ADC conjugation; also called 109 [sic]
EC50 [2]: 4.8 nM | Kd [1]: 9.8 nM | EC50 [3]: 5.3 nM | EC50 [4]: 5.4 nM

B4: L15 (lead optimized clone of 15B2GL) (antibody, V domains shown)
VH: EVQLVESGGGLVKPGGSLRLSCAASGFTFSSYSMNWVRQAPGKGLEWVSSISGQSNYIYYADSVKGRFTISRDNAKNSLYLQMNSLRAEDTAVYYCARGGNYFVEYFQYWGQGTLVTVSS
VL: EIVLTQSPGTLSLSPGERATLSCRASQYISSNNLAWYQQKPGQAPRLLIYGASNRATGIPDRFSGSGSGTDFTLTISRLEPEDFAVYYCQQYADSPITFGQGTKLEIK
notes: as for B1
EC50 [2]: 4.2 nM | Kd [1]: 4.5 nM | EC50 [3]: 4.48 nM | EC50 [4]: 4.2 nM

B5: P10 (lead optimized clone of 15B2GL) (antibody, V domains shown)
VH: EVQLVESGGGLVKPGGSLRLSCAASGFTFRSYSMNWVRQAPGKGLEWVSSISGQSNYIYYADSVKGRFTISRDNAKNSLYLQMNSLRAEDTAVYYCARGGNYYVEYFQYWGQGTLVTVSS
VL: EIVLTQSPGTLSLSPGERATLSCRASQYISSNYLAWYQQKPGQAPRLLIYGASNRATGIPDRFSGSGSGTDFTLTISRLEPEDFAVYYCQQYTDSPITFGQGTKLEIK
notes: as for B1
Kd [1]: 5.3 nM
